Test: soluble on expression in E. coli; label from the status in PepcDB or PDB records

Soluble on expression in E. coli, not soluble:
MGSDKIHHHHHHMYIGCNWSKALKFLLEKDEVKIDYIKAGAYGDFENEFSTMRSMKPILIHGLGKFERTGMKDINLVDFDRANSIIKRCSSPHFGIHLEIKNSDMYEGMRDENIYEYMCKQIQTFKKNIEVPLLLENVPDSPIEHTVFDCYPYFQPKKLTKLFLDNNVDFLLDLTHAKITSKYHKIDVHEYLNGLPLERVREIHVNGSGYDEEGFPMDTHSSMEKEDYDLLRWVLTYSKPYVVTLEYAGTKKEKEADIIASLKTQLREIQNIIISR
MGSDKIHHHHHHMYPAKHYQTNEENITHYHEIIESNPLATLLFSHESEIDVSHIPCHFSLKTSNTNTQQLERSTLTAHVSNHHPLAKVLQRSSTVALQLVFHGEDAYISPRDVSKQHSHAQSVPTWNYAKVHVSGIAHEVKDSDDKYQYMAASTAYFEQRRSTNNIDKPWSIEEAPAIAIKKMLNAITIFSINITHLEGRFKLSQNKSKAVQKEIAEQLTTRGVEELGQLMLAL
MGSDKIHHHHHHMYPKNTWYVACTPDEIATKPLGRQICGEKIVFYRARENQVAAVEDFCPHRGAPLSLGYVEDGNLVCGYHGLVMGCDGKTVSMPGQRVRGFPCNKTFAAVERYGFIWVWPGDQAQADPALIPHLEWAVSDEWAYGGGLFHIGCDYRLMIDNLMDLTHETYVHASSIGQKEIDEAPPVTTVTGDEVVTARHMENIMAPPFWRMALRGNGLADDVPVDRWQICRFTPPSHVLIEVGVAHAGKGGYHAEAQHKASSIVVDFITPESDTSIWYFWGMARNFAAHDQTLTDNIREGQGKIFSEDLEMLERQQQNLLAHPERNLLKLNIDAGGVQSRKVLERIIAQERAPQPQLIATSANPA
MGSDKIHHHHHHNGNGDKSLENWIWDAACSIRGAQEAAKYKDFILPLIFTKRLCDVFDDELNRIAEKVGSRAKAFKLVAMDHNLVRFYLPLQPQNPDDPVWSVIRKLSDKIGEKLTDYLREIAKANPLLNGIINRVDFNATTHGQRDLDDDRLSNLIEKISEKRLGLKDVEPDIIGRSYEYLIRKFAEGSGQSAGEFYTPKEVGLIMAKIMQPEPGMTIYDPCCGSAGLLIKCQLVLQESQGATEKFAPLQLYGQEYTPNTWAMANMNMIIHDMEGKIEIGDTFRHPKFMQAGKLAQFERVVANPMWNQKWFTEKDYDGDELGRFPKGAGYPGSSADWGWVQHILASLDKTGKAAIVLDTGAASRGSGNANKNKEKEVRKWFVEQDLIEGVIYLPQNLFYNTSAPGILLFLNRAKPKERQGKLFFINASLVFAKGDPKNYIPDEEIERIANTFLTWREEEKFSLIVYKDKIAHNDYNISPSRYIHITEEEDFRPIAEILEELEVLEKEAAETNK
MGSDKIHHHHHHQPTGTMTTDSKLTSKESALALTNSAYLKNTVFNKMTPGWGCNTILLLEYMTGKATSENSQSNYKDFQDLLVSDRSLYIEDWWQDCYAGIANCNLALQKLGEFENLDASLVNGYMAEVKFMRALYYFYLVRIFGDVPKITTVQSELGELQVSRAPVKEIYDEIIIPDLLEAEQSDLAFSDHTGRVSMGAVKALLADVYLTYAGYPLQGGKSYYAESAKRSLEVIKSNEYTLFTDYESLRLPSQNNKGEFIYQVQFSLNKRHNESVRIFLPSRSGISAYDLEYGSLIPTKEFVESFEKGDKRTEEKQYFFTNYKGHPSKFSPGAAELEFMDLNGYYIYKFFDQVAVDNTAKSDLNWSVYRYTDVLLMYAEAQVNADGTPNQQSIDIVNQIRGRAGLAPFKQTNASAFLEEVWDQRYFDLCYENKMWFDMLRTRKIRDDKSGEYVDFIGYKTNWGKVYTETQLLFPIPLSERQANPNLTQNQGY
MGSDKIHHHHHHSDDINQKVAEQLAQKAQSSSLGYDIVESLTVEVGPRLAGSEQDKVAVDWAIAKLQSLGFDRVYKEPVTVPVWRRGIAKASILSPFPQPLVVTALGGSIATPAQGLSATIVRFDTLQDLQNAEAGSLNDKIAFIDAKTERHRDGKGYGQTASGRSRGAVAAAEKGAVGIIIRSIGTDHDRMAHTGMMRYEEGVTAIPAAAISNPDADLINAMLKRDKEVVISLELGSERRGETTSYNVIAEVKGSTKADEIVLIGAHLDSWDEGTGAIDDGAGVAIVTAAAKHILDLPQKPERTIRVVLYAAEELGLLGGKTYAKEHEAELEKHYIAAESDFGAGPIYQIDWRVADTAHSPVINAMKVAEPLGVAAGNNKASGGPDVSMLPALGVPVASLRQDGSDYFDYHHTPNDTLDKINPEALAQNVAVYAQFAWVMANSKVELRPLPPKE
MGSDKIHHHHHHSDNAGRTDKQTATVHDSQKDTSSDSKSDNDKKDTKYKSADEITMDDLMSHDETPAEDFELIDNSDEIVIQKYIGKDPIMVIPDEINGKKVVSLGTYALANDKNIVAIKIGNNIKDLGEGVFGNCENLRYVVLGDSVKTIGCNPFLNTNIQEVTLNDGLQKIGEDDINNTVDAPSKNIGMDLKIPESVTEMHLRDFHLIVKAGSYAEQYAKEYAESNNLTYTVE
MGSDKIHHHHHHSPTQELNSAKIISTLTAHYGERAGLRAKAWFQVLSKAEHVDEQEKLKMVNQFFNLFRFVEDKTLWGDSNYWATPMEFIGVNGGDCEDFSIAKYFTLLQLGVSEDKLRITMVKATTMNQYHMVLAYYPTPSSIPLVLDNLDREIKPATQRNDLLPVYSFNGKQLWLNKEKGRGVLAGSSSRLKKWNDLKHRLGVDRLRQPKLKME
MGSDKIHHHHHHSTPTEFKRPSLKVLFGSFVGEYPGIIAQEKGFFKAQGVDVELIHKRYIQLEQANFSAGKYDGMTSSLGNLIILSAINLDIQGVIVIDESTGADVVVAQPQIKTVADLKGKKLGANLGGFSELFITEMLKTNNLNSNDVNLVRLEALKIPQNLKKNFIQAGHTWEPYLSEAMKIGGNILFTSKQTPGLILDLMIFRGDVIRDRPGDIRAFVQGWLQASEYWKENVQEGNTIISKALKIPSNTISLEGISLTSLDENQNLFQFSNPNSIDKIAKVYADFFIRAGNLTRIPELKSLFNSSFLNPAS
MGSDKIHHHHHHVDIQALKKVSELDVFSLLVFKLIYETGFANFAAKELAVSAPKISRCLTSLRAIFNDELFFRRQQGLKPTPLAERLYQPVCQLCDMVSQIERVADDRLNHHQTPILHIAVSPSIITSVAIALSKLPRDVIGKVKLHSWQADTEELIYNGELDFGIGFETQDTHGLEAYPIANVTSLCVVGNTNHLFWAGAEQIKLEDIIQHPIVYLRCKGFNNRIDPLELYCQTHGLLLEDIECARKLEDWYWHILTMDSLAITICNEGSFAQQIPQLRVERLPQSEFTKLNSVMAMPSYCLIERAEHYRRYSLNVKEMIIDIIKSLLV
MGSDKIHHHHHHVDRGCQWRGDDSLRGQRHERRGQLRLMGAAEYASQVRTLPKLGLGVGLRNEHFNHILSERPNVDWFEAISENFMDSGGRPGWVIRQIAEHYPIVLHGVSLSIGSADPLNEGYLARLKLLADDVQAKWVSDHLCWTGVLSINSHDLLPLPLNEETLGHVTSRVHHVQEVLGRPLILENPSTYASFQTSDIPEPEFLRALSDATGCGLLLDVNNVYVSCFNDGTDPLEYLEKIPFEKVIQMHLAGHTNCGEFLLDTHDQPVTRGVWELFRLAWQRTGGAATLLEWDGDVPAFEDLHAEVLKAREFMAGEVEALHLYQGAAAPGRARVSNPVDHIVSPVRGHSRLDA
MGSDKIHHHHHHVEFIVGGATGEFYFLEMNTRLQVEHPVTEMITGLDLVEQMIRVAYGEKLKITQDDVKLQGWSMEARVYAEDPFRNFLPSTGRLTRYQPPAESQHVRVDTGVYEGGEISMFYDPMIAKLITYGPTRETAIAHMRQALDEYHIRGLSHNIPFLASLFSKERFVKGNLTTNFIAEEYPNGFTSSDLPSDDPTTLIAVAAAMKRRIVERNIQISGQFPGHEMKAPTEWTVLIGGTYHEVDVHPAPGGYAVVVEGEAVEVKTDWQIGDPLIRAKVDDRMVCVQVDRTGVSFRLSHSGVQAEVWVLTRPTAKLHKLMPFKAPPDMSKYLLSPMPGLLAKLLVEEGQEVKAGEPLAVVEAMKMENILKAERDAKIAKVHAKSGDSLAVDQKIIEFAS
MGSDKIHHHHHHVILSDWLAARLDRSAAEPVYRQTLRLMQQAILTGQLPPGTKLPSSRTLAQDLGIARNTVLHVYDQLTAEGYVISTTGSGTYVADTRPDTAAVNARKKPVVVSGIETDADAAIETTRRPKRDLGDLSTRGRRLIDTAGVSAKQWGAFMPGVPDVAEFPARTWSRLQARLWKEANPDLLTYAPGGGYRPLRRALSDYLRVARSVNCTPDQIIITTGIHQSIDLAVRLLTDVGDRAWVEEPCYWGARSVLQSSGITLVPVPVDDEGLNPREQDLQQPPRLALVTPSHQYPLGMVMSLARRRTLLEYARQHNVWIIEDDYDSEFRYGSRPLASLQGLDDAGQVIYVGSLGKMLFPGLRIGYMIAPEHLVDTFRTGVAELYREGQLMQQAVMTDFIMDGHLTSHVRRMRALYGERRQILIDAITARFGSELPVMGDEAGLHLVLGLPDHANDRAVTAAAYDAGVIVRPLASYYSGDTPARRGLLLGYACVPNDRIGPAFDTLARVIEQTALKTPTRAA
MGSDKIHHHHHHVITLWGRLNSHNVKKVAWALIEMDLPHQRRDIGGQFGYTTDYLAKNPNRMVPMIEEGELALWESNAILRYLADRHAPAFRSDDPVVRAQGDKWMDWQFHFADAQRDAFLGCVRHGKDASDPAVATSATAAAGMMAILDEELARRPWLSGDRFGIADIPMGVYAHTYHSLPIERPDLPHLADWYARLRTRPGYASQVMIPLI
MGSDKIHHHHHHVKRFDWYTEIHRLDAEADCRRITEILTTHEFPWDIEQALSLALYRTYAVPSIGQLLAETREFLDRTQRRSDDTALILTEIMRHGFEPGRGRDALRRMNQMHRSYDISNDDYLYVLSTFVVMPVRWINDLGYGWRRLTEHEITANTNYYRLLGKHMGIKEIPETYDEFYELFDSYEIAHFGYSEGGRAVSDATLRLMVDTVPRWQQPVFRKFTMALLDDRLIQAFRYDPPSRFWRTAAHLAMWLRAKIVRFMPPRVEPYRIENNPKIKSYPNGYDPRRIGTFPKGCPVPHDMVTIEIPETGARIPAPGQELAPQGQDARA
MGSDKIHHHHHHVLINQQYTRHGPDYRFGEQVTFLDVKQTFGFSHVRVGRWVTRDESRLAADLVFDSLADLAFILKLPPLKLGLRETVSLAFGHGGQKGVQAHYAPAARELALAKNAGAGALAHEFWHAFDHYIAAKSFKSSSKRFQCASDLWLSDLPIIEHPLNARLSEIFKVTFLSGNGDEPHDYVRRAIALDKKHGMQYFARPTEMMARAFEACIESYDDISNPYLVSGTRFSAMAKEGAYPDEAHRKVIFQALINYFEPLGMALSKHPLG
MGSDKIHHHHHHVLSTANITMQFGPKPLFENISVKFGGGNRYGLIGANGCGKSTFMKILGGDLEPSSGNVMLEPNIRLGKLRQDQFAYEDVRVLDVVMMGHAEMWAAMTERDAIYANPDATDDDYMHAAELEAKFAEYDGYTAEARAGELLLGIGIAIENHNGPMSNVAPGWKLRVLLAQALFSKPDVLLLDEPTNNLDINSIRWLEDVLNQYNSTMIIISHDRHFLNQVCTHMADMDFGTLKVYPGNYDDYMLASTQARERQQNANAKAKERVADLQDFVRRFSANKSKARQATSRLKMIDKIKIEEFKPSSRQNPFIRFEYEKKLHNIAVVAEKISKKYERTIFNDFSISVQPGERIAIIGENGAGKTTLLRSLLGKLELDHGTVKWAENANIGYMPQDTYEEFPDDVTLMEWIDVYRKEGDDEQMVRGTLGRLLFNADDIRKSVKVLSGGEKGRMIWGKLMLGRHNVLLMDEPTNHMDMESIESLQIALDKFEGTLIFVSHDREFVSGLANRIIEVKTDGTLNDFGGNYEDFLLSQGVQ
